# Experimental data from the DeepSol protein solubility set.
# Assay: soluble on expression in E. coli; label from the status in PepcDB or PDB records
row,Sequence,soluble on expression in E. coli
1,MGSDKIHHHHHHMKKLLNTLYLTQEDFYVTKEGDNIVIKQEGKVLKRFPFRIIDGIVCFSYLGVSSALVKLCTENQINLSFHTPQGRFCGRYIGSTNGNVLLRREHYRLSDREESLEYAKRFILAKISNSRKYLLRFKRDHRQQIDTKLFEAVNDELIWALEMVQAADNKDSLRGIEGQAANQYFRIFNDLVLTDKKTFYFQGRSKRPPLDCVNALLSFGYSLLTFECQSALEAVGLDSYVGFFHTDRPGRASLALDLVEEFRSYIVDRFVFSLINKGQLQKKHFEVKENGSILLTENGRAIFIDLWQKRKHTEVEHPFTKEKVKLMLLPYVQAQLLAKAIRGDLESYPPFMV,not soluble
2,MGSDKIHHHHHHMKKVERINTIMRYINNRSHFTISEIIREFNISRSTAIRDIREIEAMGMPLVAEVGRSGGYFVMHNSILPVVRFTDNEVKALFIAFMATRNQQLPYLKSRQSLAEKLLGLISETQQDDLVLLNQLLLFEGTNPHNPDLLELSDLPHPMLEKLIQILLLDRYLLITVKEEIKSYPIYLLHLYKEKSYWIIEGFDLKEEKKLMFPVDDLINIEPYTPKKRLHKKQILERLSKKDEAINLVFELGPKAIAQFKKYHPFKVSISYTNPYQSTAILKTFIDVHNSDEVTEMTNWLLFLGKDITIKEMPEEVLKDLQERLCLYTP,not soluble
3,MGSDKIHHHHHHMKLAKFDTQPLPHFLMESATVDYAHADIRKLAAALSSDDSTATARHCFEWVRDHIEHSMDFHREEVTCAASDVLQQGTGLCTAKSHLLVALWRANQIPAGFCYQRLTLDGPNPPYCTHGFTAVWLNGRGWYRCDARGNSKPGIHCEFTPGQENLAFSSRYDGERTYPEVWAEPWPDLLTAMEKLQNISQYRSHPIDARPPAADLCVSESAAPNME,not soluble
4,MGSDKIHHHHHHMKLIESVPNFSEGRRKEVVEKIVAEAKKYDRVWVLDWSMDADHNRSVITLVGEPENLINALFDMTKKAAELIDLRNHTGQHPRMGAADVIPLVPLYNTTMEECVEYSKILGRRIGEELGIPVYLYEKSATRPERQNLADIRKGEFEGFFEKIKDPLWKPDFGPDRVHPTAGVTAVGAREFLIAFNVNLGTRDVKIAEKIARAIRFSSGGLRYVKAIGVDLKGRGVVQVSINITNHKKTPLYRVFELIKMEAERYGVPVLGSEIVGLFPLESLLKTVSYYLRTDLNAKKVIESNLLEILVRESEK,not soluble
5,MGSDKIHHHHHHMKLIINADDFGFTRAINYGIIDAHNLGVLTSTTLMVTMPAFEHAVDLSKKTPTLGIGLHLNLTLGKPLTNGATLVNEDGELIKPKFTTPEYPYNEEEVYQEFKAQYHRFTEFMKKKPSHLDSHLFSTDIYPVVTSAAKRLAEEIGIPLRNHDTKGFEHVEFMWEKPLEIPYGEYDNLDYIYDNAASILCYDYVEIMTHPGYLDTFILENSTFSTPRANELESLISPRMRQFLNENNVELISYHDIPKK,not soluble
6,MGSDKIHHHHHHMKLLILGNHTCGNRGDSAILRGLLDAINILNPHTEVDVMSRYPVSSSWLLNRPVMGDPLFLQMTQHNSAAGVVGRIKKVLRRRYQHQVLLSRVTDTGKLRNIAIAQGFTDFVRLLSGYDAIIQVGGSFFVDLYGVPQFEHALCTFMAKKPLFMIGHSVGPFQDEQFNQLANYVFGHCDALILRESVSLDLMKRRNITTAKVEHGVDTAWLVDHHTEDFTASYAVQHWLDVAAQQKTVAITLRELAPFDKRLGTTQQAYEKAFAGVVNRILDEGYQVIALSTCTGIDSYNKDDRMVALNLRQHISDPARYHVVMDELNDLEMGKILGACELTVGTRLHSAIISMNFATPAIAINYEHKSAGIMQQLGLPEMAIDIRHLLDGSLQAMVADTLGQLPVLNARFNEAVSRERQTGMQMVQSVLERIGEVK,not soluble
7,MGSDKIHHHHHHMKLNTIDYLAPDSAERFVESLRETGFGVLSNHPIQKQLVEDIYKEWYNFFQSEQKHDFLFKSETHDGFFPASISETAKGNNVKDIKEYYHVYPWGRIPDSLRANILAYYEHANTLAAELLSWIEKYTPADVAEKYSIPLPDMIAQSQQTLLRILHYPPMKGDEEMGAIRAAAHEDINLITILPAANEPGLQVKTKTGEWIDVPSDFGSIIINIGDMLQEASGGYFPSTSHRVINPEGTDKTKSRISLPLFLHPNPEVVLSERYTADSYLQERLRELGVI,not soluble
8,MGSDKIHHHHHHMKLSPTAQPFLHLHNLFILHQKVLVVKPMKELFPGLKRFRAYLNTAGLGLMPLTVYQKVNEFLLDVINYEDGINAVEILDELYFNPMLKKAAKLMKTNPENITVSLQTTDGLKRILTSLTPKKGMKIVSFDLEFPTISAILKSYAKRHGLEVKVIGNKGGLYYMEDVERVIDDNTFAVVFSDVQWITGQRMPTKEIAGVAHEHGAWVIVDAVQSLGALEVYPEKMEVDALVAGGEKWLLNPNTGSGVMWISEELIEVSEPILGLLNTQPEVPWSEWWGDERKDVWDILPVRKDARKLDPGTPPYVSIVALDASLELINSVGIEKIEKHDMKLAKRVREYAYELGVTALGSSQITLLRLGVDYVKQREIVKNLEEKGIVVSLRGAKGIFGIRVSPHLYNTEDDIVTLFDELSKFF,not soluble
9,MGSDKIHHHHHHMKLTILTDNRAAPGLTCEHGFAVLIETGGKRILFDTGQLTAIDANCRALGIDLSDIDIIVLSHGHYDHTGNLADVLRIADRATLYLHPSALIERYSIRNDKPKPIDMPETAKQAINGLPKERVVWVTEPTRLTDGAFLTGPVPRQTTFEDTGGPFFFDPDGKTPDPIEDDLSLWIEKPEGLIVLAGCCHAGIVNTLDYIESITGQKRIATLIGGMHLSAASPERLNRTVASLANRDISRLIACHCTGQAAVERFSKELPYPVEAGYAGMVVESANE,not soluble
10,MGSDKIHHHHHHMKMETGKLLMELSNLDGPSGYETNVVSYIKSVIEPFVDEAKTTRHGSLIGYKKGKGIGKLAFFAHVDEIGFVVSKVEGQFARLEPVGGVDPKVVYASKVRIYTKNGIERGVIGMLAPHLQDSESRKKVLTYDEIFVDLSLCERDVRVGDIAVIDQTAFETNGKVVGKALDNRASCGVLVKVLEFLKRYDHPWDVYVVFSVQEETGCLGALTGAYEINPDAAIVMDVTFASEPPFSDHIELGKGPVIGLGPVVDRNLVQKIIEIAKKHNVSLQEEAVGGRSGTETDFVQLVRNGVRTSLISIPLKYMHTPVEMVDPRDVEELARLLSLVAVELEV,not soluble
11,MGSDKIHHHHHHMKNKVGIMYDNISGNTGDVAIGISLRKIMKELKVDFDEILLNNIDVLKYNTVIIGGGHLLRENSDFFYDKFKLRGPNILNSVGVVGNPNDLQYLEEYKYVTFRSEGDRKKAGYLNKKSSVVPCTTMLLDDLQDFPIHIKRPAIGVHLIPNIFSKEEEGLFVKWASKLPYTIYFIPITHYNYDYIYMSKLSQRISNSRVLPIMKPLEIFTFIGKLDYLITCSLHGSIFSYIHNVPFILMEQEKSRFFLEDRGLQGYLFSNLKEIIGLTEKVINNPLDYSNLIVKDKKILEEHVENIKQIVPNNSTYILSKECTESDEITQLNLQNGILQINLSKLTYELEAYKKEIKGINFRLKDEESKHMYYKKELKKIYRSRGWKALKKFYSLKDFISKKINGA,not soluble
12,MGSDKIHHHHHHMKNRFLIICTVLFLSSCLAYGQEQASVTNDFSENKQGCIQHPWQGKKVGYIGDSITDPNCYGDNIKKYWDFLKEWLGITPFVYGISGRQWDDVPRQAEKLKKEHGGEVDAILVFMGTNDYNSSVPIGEWFTEQEEQVLSAHGEMKKMVTRKKRTPVMTQDTYRGRINIGITQLKKLFPDKQIVLLTPLHRSLANFGDKNVQPDESYQNGCGEYIDAYVQAIKEAGNIWGIPVIDFNAVTGMNPMVEEQLIYFYDAGYDRLHPDTKGQERMARTLMYQLLALPVAF,not soluble
13,MGSDKIHHHHHHMKPLADRIRPENFNEVFGQKHIIGEGKILDRILKSSLVPNMIFYGPPGTGKTTVANIIAKKTNKAFYKLNATTASVKDVREITDSTNTLMGRNGVLLYLDEIQNFNKKQQQSLLEFMENGSITLIASTTENPYFYVYNAILSRSTIFEFKPLESDELMKAVNRAVELIKDELKTTEIIITEDAKKYAVGVSSGDVRKTLNSIEIAVYSTKPNEEGNIFIDLETMKECTQKNVLNFDKDGDNHYDILSAFQKSIRGSDADAAVLYLAMLIKGGDLKSICRRLLVIAAEDIGLAYPQAISIVKACTDSALELGFPEARIPLAEAVILLATSPKSNSAITAVDSALRDLDTINVGSIPDYLRDGHYEGAKKLGRMQDYKYPHSYENNYVKQKYLPSNLENRRYYEYGKNKIEEKCREYWERIKY,not soluble
14,MGSDKIHHHHHHMKPLPAQAIWFTAPHTVSIREEIAPPPAYGDVRIAAIASLISHGTERLVYRGEVDPTLALDLPTLQGSFAFPIKYGYAIAGRVIDIGPGVEQFQIGDPVAALHPHQTIFTLPAHLVKRLPDTLDPALGGFYANVETALTICHDAAPRLGETVVVLGQGVVGLLVTQLLQRTGAQVIAVEPDAHRRALATQFGATTLAQADPATIAELTDGRGADIVVEVSGSPAALQQAIELTATEGLVVVASWYGQKPAPLILGGHFHRGRVRLRSSQVGRLAPETLPRWDYARRSATVMNLLPRLCLNELISHRIPFVQAAAAYDLLDQAPPGLVQVMLTYADYAPQT,not soluble
15,MGSDKIHHHHHHMKQDTIHINGLSIGYHSKSSTKLVAKGIHSTIYSGELTCLLGANGVGKSTLLRTLSAFQPKLDGEILVLGKDIDTYSDKELSTTIGVVLTDKCEIRNMLVRELVGMGRSPYTGFWGKLSKDDKRIVEESIALVRIEELASRMVHTLSDGERQKVMIAKALAQETPVIYLDEPTAFLDFPSKVEIMQLLHHLTRKTNKTIFMSTHDLELALQISDKIWLMDKANGISTGTPEDLALSGHLSNFFARKGIVFDKDTGLFRIDNQFSRQIRLVGHGQKYAMVRKGLQRNGILANREVESNIWIETGDLKTTHFIIHETSGGTYITQTIEELLAYFDTEKS,not soluble
16,MGSDKIHHHHHHMKQLGLGLNLSTKKTRKREFLEDMERVVPWAVLVQIVAPHYPKAKTGRPPFGIETMLRIHYLQQWFGLSDPAMEEALHDVPLYREFAKLDSVTARLPDETTILRFRHLLERHNLAVDMLRVVNDLLQHKGLMMRTGTAVDATLISAPSSTKNAEGERDPEMKQTRKGNNWYFGMKAHIGVDAQSGLVHTVATTGANVNDLNMAGALLHGDEEAAFGDAGYQGVHKRPEAKGPTWHVAMRPGLRRKLNPFIEPDFIAERIEKMKASIRAKVEHPFRVIKRQFGFTKVRYRGLKKNTAQIVTLFALSNLWMARRQLIGARG,not soluble
17,MGSDKIHHHHHHMKRILFISPTTSMDNGAEKSIYYLMKHLIQLGHTVINVTHAIGGEPQDKHEQLYKMIGVKNYYLPTVKWWWPDAPGGEILNREEATSYYRQNVQDIAEIIDQNEIDLVISNTVNVFQGAIAASCQKVPHFWLIHEFPKNEFAYYADKIDFIEEYSSELFSVTGELNNFLTPLFNKKVHSFISYTEQETKVLKKGNQVRIVSVGRLTEGKNQLELIKAYKTLNRLDIELVFIGGWDSKYKAICDEYIHENKLQKNVKFLGNLDNPWEEVTDRDICVFPSSMETFGLVYVEAILRGLPVILSDNLGHLTAFEIFSAGQIYKLGDIEELVTKLEQVIESFRNFSDRARLDVERLRTLYTPEVAYKEILNSINHLEYTGHQNTNLSHIKELLTLNMHPTRLERYARLISNMATKIRHKLRL,not soluble
18,MGSDKIHHHHHHMKRPISQQSVQVALGQAALPVGVLTFNKDGARESSTFAYHEAWLRSADRFEISPDLQLVQGQQFRKAPSRDDSIFPFAFADTEPDGWGCRVIARDHARRRKSAQEKGRDVPHAGLTEMDYLLGVDDLSRIGALRLADEAGNYLRSIEDGGRGTPPLLELGHLIGATRAVEMNRETAADLKYLRGRGTSLGGMRPKCTILDEDGQLAIGKFPSINDDRSVTRGEVLALHLAAAAGITVAQSRIVMSEEIPVALVRRFDRVTNGGRIPYLSAGSMLQASRQEEHAYTQIADCIIARCADPKRDLEELWRRLVFNLLITNVDDHVQNHGFLHVEHGLWRLAPAFDINPFPDKDPELKLWLNEDYGPVDSIEAVMNEARYFRLSADEAKRILGEVRNAVGDWKRVAKSAPVGMTDDDLDAFQPAFENGQTEAAAALL,not soluble
